According to patent US10800813 (Bicycle, dated 2020):
Numbered stars: 1 amine (or outer) side, 2 acyl side, 3 side chain; on linkers, the order of the positions; unused ones are H or OH. Bridge positions count the residues as written; N and C are the ends. Ends that are not written are not given here. TBMB = c1c(C[*:1])cc(C[*:3])cc1C[*:2]

What follows are binders tested against T1, biotinylated human plasma Kallikrein (human, UniProt P03952 20-638, biotinylated) (assay: phage binding assay, signal:background).
T1 construct: also called Biotinylated hPK
Description: Library transformant colonies, or selection output colonies, were picked and grown as individual cultures in 2TY broth containing selective antibiotic. The picked colonies were DNA-sequenced using a QIAgen PyroMark Q96 DNA sequencer to reveal the amino-acid substitution present in each clone, and were assayed for human plasma Kallikrein binding as follows. The phage-containing supernatant was harvested from the culture and phage were cyclised with tris bromomethyl benzene(TBMB) based on the methods of Heinis et al (Nature Chemical Biology vol. 5 pp 502-507 (2009)). The purified phage from this process were assayed for binding to biotinylated human plasma Kallikrein using a homogeneous plate-based binding assay; assay read-out measured on a BMG Labtech Pherastar FS plate reader. The quantitative binding data from duplicate assay samples was averaged (mean) and expressed as signal:background. […] The assay data was correlated with the peptide sequences.
Selections against human plasma Kallikrein were performed with this library in order to study the non-WPAR (SEQ ID NO: 18) determinants of Kallikrein binding, and to isolate the optimal WPAR (SEQ ID NO: 18)-containing peptide sequence.

T1 sequence (P03952 20-638 limits assumed): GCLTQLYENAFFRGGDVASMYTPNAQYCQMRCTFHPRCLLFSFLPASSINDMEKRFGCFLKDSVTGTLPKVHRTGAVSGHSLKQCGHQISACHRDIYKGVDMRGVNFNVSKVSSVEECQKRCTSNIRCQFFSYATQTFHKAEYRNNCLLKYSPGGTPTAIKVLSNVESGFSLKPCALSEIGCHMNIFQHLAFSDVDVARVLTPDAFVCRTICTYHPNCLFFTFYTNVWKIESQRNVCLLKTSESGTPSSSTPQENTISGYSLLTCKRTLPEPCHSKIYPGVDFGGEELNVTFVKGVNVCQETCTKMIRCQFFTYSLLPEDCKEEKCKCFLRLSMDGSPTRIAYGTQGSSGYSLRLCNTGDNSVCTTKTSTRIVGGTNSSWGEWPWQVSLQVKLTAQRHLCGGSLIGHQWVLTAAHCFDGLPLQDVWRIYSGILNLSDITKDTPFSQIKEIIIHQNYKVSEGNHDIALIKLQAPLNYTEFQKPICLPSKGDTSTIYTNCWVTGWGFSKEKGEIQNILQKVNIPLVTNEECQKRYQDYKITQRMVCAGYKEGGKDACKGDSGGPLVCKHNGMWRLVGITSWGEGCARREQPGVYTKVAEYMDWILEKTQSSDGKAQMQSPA

Binder	Binding assay signal
CQWPARCMHQDMC (linker 1-7-13 via TBMB (inferred)) [SEQ ID NO 131]	75
CQWPARCMHQELC (linker 1-7-13 via TBMB (inferred)) [SEQ ID NO 135]	73
CNWPARCTHQDLC (linker 1-7-13 via TBMB) [SEQ ID NO 115]	116
CSWPARCLHTDLC (linker 1-7-13 via TBMB (inferred)) [SEQ ID NO 126]	83
CLWPARCTHADLC (linker 1-7-13 via TBMB (inferred)) [SEQ ID NO 133]	74
CAWPARCTHVDLC (linker 1-7-13 via TBMB (inferred)) [SEQ ID NO 127]	82
CLWPARCTHQDLC (linker 1-7-13 via TBMB (inferred)) [SEQ ID NO 122]	90
CSWPARCTHDDLC (linker 1-7-13 via TBMB (inferred)) [SEQ ID NO 119]	93
CHWPARCTHQELC (linker 1-7-13 via TBMB (inferred)) [SEQ ID NO 124]	85
CPWPARCTHQDLC (linker 1-7-13 via TBMB) [SEQ ID NO 117]	107
CQWPARCTHSDLC (linker 1-7-13 via TBMB (inferred)) [SEQ ID NO 132]	74
CAWPARCTHTDFC (linker 1-7-13 via TBMB (inferred)) [SEQ ID NO 128]	80
CAWPARCTHTDLC (linker 1-7-13 via TBMB (inferred)) [SEQ ID NO 120]	92
CMWPARCMHQDLC (linker 1-7-13 via TBMB (inferred)) [SEQ ID NO 129]	79
CTWPARCTHTDLC (linker 1-7-13 via TBMB (inferred)) [SEQ ID NO 123]	88
CHWPARCTHQDLC (linker 1-7-13 via TBMB) [SEQ ID NO 116]	110
CAWPARCTHADLC (linker 1-7-13 via TBMB (inferred)) [SEQ ID NO 130]	79
CRWPARCTHQDLC (linker 1-7-13 via TBMB (inferred)) [SEQ ID NO 134]	73
CSWPARCTHADLC (linker 1-7-13 via TBMB) [SEQ ID NO 118]	100
CAWPARCLHDDLC (linker 1-7-13 via TBMB (inferred)) [SEQ ID NO 125]	84
CQWPARCLHTDLC (linker 1-7-13 via TBMB (inferred)) [SEQ ID NO 121]	91

Now from value to binder:

Binding assay signal	Binder
63	CDWPARCMHQEFC (linker 1-7-13 via TBMB (inferred)) [SEQ ID NO 152]
61	CAWPARCTHQTMC (linker 1-7-13 via TBMB (inferred)) [SEQ ID NO 153]
59	CLWPARCLTTELC (linker 1-7-13 via TBMB (inferred)) [SEQ ID NO 157]
59	CSWPARCTHAEMC (linker 1-7-13 via TBMB (inferred)) [SEQ ID NO 158]
63	CAWPARCLHQDWC (linker 1-7-13 via TBMB (inferred)) [SEQ ID NO 151]
61	CTWPARCLHQHMC (linker 1-7-13 via TBMB (inferred)) [SEQ ID NO 154]
70	CAWPARCTHYDLC (linker 1-7-13 via TBMB (inferred)) [SEQ ID NO 142]
69	CSWPARCTHTELC (linker 1-7-13 via TBMB (inferred)) [SEQ ID NO 144]
68	CSWPARCIHQDLC (linker 1-7-13 via TBMB (inferred)) [SEQ ID NO 147]
59	CRWPARCTHTDLC (linker 1-7-13 via TBMB) [SEQ ID NO 159]
72	CSWPARCTHSHLC (linker 1-7-13 via TBMB (inferred)) [SEQ ID NO 137]
71	CVWPARCTHQDLC (linker 1-7-13 via TBMB (inferred)) [SEQ ID NO 138]
58	CPWPARCLHTDLC (linker 1-7-13 via TBMB) [SEQ ID NO 163]
59	CSWPARCTHSDLC (linker 1-7-13 via TBMB) [SEQ ID NO 161]
59	CSWPARCLHDDLC (linker 1-7-13 via TBMB) [SEQ ID NO 162]
71	CTWPARCTHADLC (linker 1-7-13 via TBMB (inferred)) [SEQ ID NO 139]
66	CAWPARCTHTHLC (linker 1-7-13 via TBMB (inferred)) [SEQ ID NO 149]
60	CEWPARCLHTDLC (linker 1-7-13 via TBMB (inferred)) [SEQ ID NO 156]
69	CAWPARCMHDDLC (linker 1-7-13 via TBMB (inferred)) [SEQ ID NO 145]
67	CTWPARCTHTDMC (linker 1-7-13 via TBMB (inferred)) [SEQ ID NO 148]
70	CPWPARCTHTDLC (linker 1-7-13 via TBMB (inferred)) [SEQ ID NO 141]
68	CSWPARCLHTELC (linker 1-7-13 via TBMB (inferred)) [SEQ ID NO 146]
69	CPWPARCTHQNLC (linker 1-7-13 via TBMB (inferred)) [SEQ ID NO 143]
71	CHWPARCMHQDLC (linker 1-7-13 via TBMB (inferred)) [SEQ ID NO 140]
59	CTWPARCTHQAFC (linker 1-7-13 via TBMB) [SEQ ID NO 160]
66	CAWPARCLHADMC (linker 1-7-13 via TBMB (inferred)) [SEQ ID NO 150]
61	CSWPARCVHQDMC (linker 1-7-13 via TBMB (inferred)) [SEQ ID NO 155]
73	CTWPARCLHQDLC (linker 1-7-13 via TBMB (inferred)) [SEQ ID NO 136]
